For the assay, the target named is (2S)-methylsuccinyl-CoA dehydrogenase from Paracoccus denitrificans, wild type, as used for analytical size-exclusion chromatography (Paracoccus denitrificans). Description: SEC; analytical; Superdex 200 Increase 10/300 GL, 100 µl at 2 mg/ml, 0.7 ml/min, 20 mM Tris-HCl pH 7.9, 200 mM NaCl; enzymes incubated with 500 µM FAD for 1 h on ice beforehand; calibrated with a gel filtration standard.

These results are taken from PMC5798300.

For orientation: stoichiometry N means the number of molecules, sites or subunits per partner or assembly. Substance “(2S)-methylsuccinyl-CoA dehydrogenase from Paracoccus denitrificans, wild type, as used for analytical size-exclusion chromatography (enzyme)” displayed a stoichiometry N of 2.
